Each block holds one molecule with its values, some of them ahead of it.
Key:
nuclear beta-catenin = assay: Wnt-induced nuclear beta-catenin accumulation in Xwnt8-responding animal cap cells; type: in vivo, Xenopus; conditions: stage 9 animal cap cells neighbouring Xwnt8-expressing cells; 200 pg mRNA
Experimental: FIGS. 7A-C are each schematics with accompanying bar graphs showing that Tiki1 inhibits Wnt/β-catenin signaling in both Wnt-producing and Wnt-responding cells. 7A, Tiki1 acts in Xwnt8-producing cells. Xwnt8 mRNA (20 pg) was co-injected with Tiki1 or LDLR mRNA (100 pg) into a single blastomere at the 8-cell stage, while S01234-Luciferase (140 pg) plus TK-Renilla (1.25 pg) reporter DNAs were injected into a neighboring blastomere. 7B, Tiki1 acts in Xwnt8-responding cells. S01234-Luciferase and TK-Renilla reporter DNAs were co-injected with Tiki1 or LDLR mRNA in a single blastomere, while Xwnt8 mRNA was injected into a neighboring blastomere. Luciferase readings were normalized to Renilla. 7C, Tiki1 reduces nuclear beta-catenin levels in Xwnt8-responding cells. […] Only cells within the distance of five cell bodies from Xwnt8-expressing cells were counted in any given field. […]
Secondly Wnt-induced nuclear beta-catenin accumulation was monitored. […] In confocal microscopy Xwnt8-expressing cells were traced by RFP (red), whereas Wnt-responding cells that expressed Tiki1 or LDLR were traced by FLD (green), and naive cells descended from uninjected blastomeres lacked green or red fluorescence. […]

[1] = tested on: Super-TOPFLASH (STF) luciferase reporter; assay: Super-TOPFLASH (STF) luciferase reporter induction in STF cells; type: cell-based; conditions: 6-hour treatment; not shown
Experimental: A high throughput screen (HTS) is used to identify compounds that enhance LRP5/6 signaling as potential therapeutics for osteoporosis or cellular proliferative disorders. We employ a Wnt responsive cell line carrying a Super-TOPFLASH (STF) luciferase reporter (Wnt-responsive) (Major et al. Science. 2007. 316:1043-6). These STF cells grow as an adherent monolayer making them ideally suited for 384-well-plate screening format. […] Different conditions are tested and an acceptable z′ score of 0.5 or above (z′ measures HTS quality and reproducibility (Zhang et al. J Biomol Screen. 1999. 4:67-73)) is achieved.

[2] = target: T1, Recombinant human WNT3A protein (Homo sapiens, UniProt P56704); assay: Acyl-biotinyl exchange (ABE) analysis of WNT3A after in vitro incubation; type: biochemical; conditions: compared with WNT3A incubated with Krm2N
Experimental: FIG. 6I is a gel showing the results of ABE analysis of WNT3A after in vitro incubation with Krm2N or Tiki2N Biotinylation of WNT3A was much reduced after incubation with Tiki2N compared to that of WNT3A incubated with Krm2N.
Biotinylation of Wnt3a secreted in the presence of Tiki2 was much reduced compared to that of Wnt3a from control cells (FIG. 6C). This reduction of available thioester linkage indicates depalmitoylation of Wnt3a at a cysteine residue, e.g., C77, in the presence of Tiki2
(§1) Recombinant human Tiki2N, which is the ectodomain harboring the conserved Tiki domain (FIG. 6J), was purified, via tandem affinity procedures from HEK293T cell extracts or CM.

Wnt3a = Wnt3a (Mus musculus, UniProt P27467); assay: Triton X-114 phase separation of Wnt3a secreted from Tiki-expressing cells; type: cell-based; set-up: expressed in transfected cells; host or cells: mouse L cells (Wnt3a-expressing); HEK293T; conditions: HEK293T cells
Text: FIG. 6A is a gel showing that Tiki inactivates Wnt3a by regulating Wnt3a acylation/palmitoylation. A Triton X-114 phase separation experiment is shown in 6A. […] T, total; Aq, aqueous; De, detergent.
FIG. 6B is a gel showing that Wnt3a secreted from Tiki1 or Tiki2 but not GFP-expressing HEK293T cells partitioned in the aqueous phase.
C77 palmitoylation is required for Wnt3a activity (Willert, K. et al., Nature 423, 448-452 (2003)) and binding to both Fz and LRP6 (Komekado, H. et al., Genes Cells 12, 521-534 (2007); Cong, F. et al., Development 131, 5103-5115 (2004)), while S209 acylation is critical for Wnt3a secretion (Takada, R. et al., Dev Cell 11, 791-801 (2006)). Thus Tiki proteins may affect C77 palmitoylation but not S209 acylation. The palmitate adduct at C77 is the primary contributor to Wnt3a hydrophobicity because palmitoylated Wnt3a is partitioned in the Triton X-114 detergent phase whereas Wnt3a lacking the palmitate is soluble in the aqueous phase (Willert, K. et al., Nature 423, 448-452 (2003); Komekado, H. et al., Genes Cells 12, 521-534 (2007)).

[3] = target: T1, Recombinant human WNT3A protein; assay: In vitro incubation of recombinant WNT3A with purified protein, Triton X-114 phase separation; type: biochemical; conditions: purified protein incubated with recombinant human WNT3A
Experimental: FIG. 6G is a gel showing that recombinant WNT3A was incubated with Krm2N or Tiki2N purified from WCL (top) or from CM (bottom) and was subjected to Triton X-114 phase separation.
FIG. 6H is a gel showing that Recombinant WNT3A was incubated with Krm2N or Tiki2N or Tiki2NΔ. purified from WCL and was subjected to Triton X-114 phase separation.
as §1

Sequence of Wnt3a (P27467 19-352): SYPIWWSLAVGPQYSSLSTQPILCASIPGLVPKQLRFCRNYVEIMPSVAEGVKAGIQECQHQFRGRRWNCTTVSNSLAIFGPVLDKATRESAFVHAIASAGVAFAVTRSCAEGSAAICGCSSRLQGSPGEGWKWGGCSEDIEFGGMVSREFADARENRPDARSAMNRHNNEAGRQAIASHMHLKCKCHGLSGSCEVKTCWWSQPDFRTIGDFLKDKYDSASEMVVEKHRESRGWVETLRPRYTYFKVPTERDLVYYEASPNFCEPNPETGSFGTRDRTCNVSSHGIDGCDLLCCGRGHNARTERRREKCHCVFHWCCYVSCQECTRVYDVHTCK

Molecule: LDLR: negative control, expressed from injected LDLR mRNA
- Cells displaying nuclear beta-catenin (nuclear beta-catenin): 80%

B1: Wnt3a: Wnt ligand added to STF reporter cells (protein)
chain: SYPIWWSLAVGPQYSSLGSQPILCASIPGLVPKQLRFCRNYVEIMPSVAEGIKIGIQECQHQFRGRRWNCTTVHDSLAIFGPVLDKATRESAFVHAIASAGVAFAVTRSCAEGTAAICGCSSRHQGSPGKGWKWGGCSEDIEFGGMVSREFADARENRPDARSAMNRHNNEAGRQAIASHMHLKCKCHGLSGSCEVKTCWWSQPDFRAIGDFLKDKYDSASEMVVEKHRESRGWVETLRPRYTYFKVPTERDLVYYEASPNFCEPNPETGSFGTRDRTCNVSSHGIDGCDLLCCGRGHNARAERRREKCRCVFHWCCYVSCQECTRVYDVHTCK
- Induction of the STF reporter [1]: 30-40 folds

- Biotinylation of WNT3A in ABE assay after in vitro incubation [2]: biotinylated to a much less extent
- Partitioning of WNT3A in Triton X-114 phase separation after in vitro incubation [3]: became segregated in the aqueous phase
B2: Tiki2N: Recombinant human Tiki2N, the ectodomain harboring the conserved Tiki domain (protein)
chain: RPQPPDGGQCRPPGSQRDLNSFLWTIRRDPPAYLFGTIHVPYTRVWDFIPDNSKAAFQASTRVYFELDLTDPYTISALASCQLLPHGENLQDVLPHELYWRLKRHLDYVKLMMPSWMTPAQRGKGLYADYLFNAIAGNWERKRPVWVMLMVNSLTERDVRFRGVPVLDLYLAQQAEKMKKTTGAVEQVEEQCHPLNNGLNFSQVLFALNQTLLQQESVRAGSLQASYTTEDLIKHYNCGDLSAVIFNHDTSQLPNFINTTLPPHEQVTAQEIDSYFRQELIYKRNERMGKRVMALLRENEDKICFFAFGAGHFLGNNTVIDILRQAGLEVDHTPAGQAIHSPAPQSPAPSPEGTSTSPAPVTPAAAVPEAPSVTPTAPPEDEDPALSPHLLLPDSLSQLEEFGRQRKWHKRQSTHQRPRQFNDLWVRIEDSTTASPPPLPLQPTHSSGTAKPPFQLSDQLQQQDPPG
modifications: left off: small tags and cut ends
notes: Recombinant human Tiki2N, the ectodomain harboring the conserved Tiki domain
- Partitioning of secreted Wnt3a in Triton X-114 phase separation (Wnt3a): partitioned exclusively in the aqueous phase

— patent publication US20130101582A1, “Tiki1 and Tiki2, Wnt Inhibitors” (CHILDREN'S MEDICAL CENTER CORPORATION, priority 2010, published 2013)
